According to patent US20220048982A1 (Eli Lilly, published 2022):
Where two headings read alike, the source gives them in different places.

T1: biotinylated human α-synuclein peptide 120-140 (human, biotinylated (site not stated))
T1 construct: also called α-synuclein fragment 120-140
T1 peptide: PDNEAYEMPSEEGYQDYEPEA


Tests used:
[1] = molecular target: T2, monomeric human α-synuclein (human, UniProt P37840 1-140); experiment: ELISA on plate-coated full-length (1-140) human alpha-synuclein, detection with goat anti-human kappa-AP, OD560
Experimental: (§1) An ELISA plate is coated with recombinant human α-synuclein fibril at 1 μg/ml in PBS overnight at 4° C. The next day, the plate is incubated with 1% casein for 1 hour at room temperature to block non-specific binding sites on the plate. […] After incubation, the plate is washed three times with 0.1% PBST to remove un-bound antibody and incubated with a detection agent (1:1000 diluted goat-anti-human Kappa-AP) in 0.1% PBST for 1 hour at room temperature. The plate is washed three times with 0.1% PBST to remove un-bound detection agent and incubated with a substrate for 15 minutes at room temperature. The OD is then read in an ELISA plate reader at 560 nm. The binding curve is obtained based on the antibody concentration and OD560 readout.
(§2) Binding full-length (1-140) α-synuclein is also determined. The procedure is essentially as described above for α-synuclein fibril binding.

[2] = molecular target: T3, mIgG1-hAsyn100-140 (mouse; human, UniProt P37840 100-140); experiment: MSD-SET solution equilibrium at 25 C
T3 construct: C-terminal fragment of human α-synuclein fused onto the C-terminal end of a mouse Fc; also called dimeric human alpha-synuclein; dimeric α-synuclein; not shown: mouse IgG1 Fc fragment; short unstructured linker element

[3] = molecular target: monomeric mouse alpha-synuclein (mouse, UniProt O55042 1-140); experiment: Kinexa at 37 C, solution equilibrium
Experimental: (§3) These samples are incubated for 24 to 48 hours at 37 C to allow for steady state equilibrium to be achieved. During this time, sepharose beads are conjugated with monomeric human alpha-synuclein and blocked with a suitable non-specific binding protein (typically BSA or casein). Once steady state is achieved, a small capillary is packed with coated beads and samples of each fixed antibody/alpha-synuclein monomer are injected over the column. […] This step is repeated for each concentration of alpha-synuclein monomer and resultant fluorescent signal (proportional to percent free antibody) and then plotted as a function of fluorescent signal versus monomeric α-synuclein concentration and globally fit to a 1:1 binding model to obtain KD. Independent runs (n=3) run with technical duplicates (95% confidence intervals) are reported.

[4] = molecular target: monomeric rabbit alpha-synuclein (rabbit); experiment: Kinexa at 37 C, solution equilibrium
Experimental: as §3

[5] = molecular target: monomeric rat alpha-synuclein (rat, UniProt P37377 1-140); experiment: Kinexa at 37 C, solution equilibrium
Experimental: as §3

[6] = molecular target: T2, monomeric human α-synuclein; experiment: Kinexa at 37 C, solution equilibrium
Experimental: as §3

[7] = molecular target: monomeric human alpha-synuclein fragment 1-115 (human, UniProt P37840 1-115); experiment: Kinexa at 37 C, solution equilibrium
Experimental: as §3

[8] = molecular target: monomeric human alpha-synuclein fragment 1-121 (human, UniProt P37840 1-121); experiment: Kinexa at 37 C, solution equilibrium
Experimental: as §3

[9] = molecular target: T2, monomeric human α-synuclein; experiment: Kinexa at 37 C, solution equilibrium; remark: listed apart in the source
Experimental: as §3

[10] = molecular target: T3, mIgG1-hAsyn100-140; experiment: ratio of Kinexa KD for monomeric human α-synuclein to MSD-SET KD for dimeric α-synuclein, 37 C
Experimental: During this time, sepharose beads are conjugated with monomeric human alpha-synuclein and blocked with a suitable non-specific binding protein (typically BSA or casein). Once steady state is achieved, a small capillary is packed with coated beads and samples of each fixed antibody/alpha-synuclein monomer are injected over the column. […] This step is repeated for each concentration of alpha-synuclein monomer and resultant fluorescent signal (proportional to percent free antibody) and then plotted as a function of fluorescent signal versus monomeric α-synuclein concentration and globally fit to a 1:1 binding model to obtain KD. Independent runs (n=3) run with technical duplicates (95% confidence intervals) are reported.
During this incubation time, an MSD Sector plate is coated with monomeric human alpha-synuclein and blocked with a blocking reagent (i.e. BSA, casein). Following steady state equilibrium incubation times, individual antibody/mIgG1-hAsyn 100-140 mixtures are added simultaneously to the plate and allowed to incubate for 10 minutes to capture free antibody and minimize exchange with antibody in complex with mIgG1-hAsyn100-140. Following this short incubation, plates are subsequently washed and incubated with a biotinylated anti-human secondary antibody, followed by detection using streptavidin-S-tag on the MSD instrument. […]

[11] = molecular target: T4, recombinant human α-synuclein fibril (human, UniProt P37840 1-140); experiment: cell-based or functional assay
[12] = molecular target: pHAb-dye labelled human α-synuclein fibrils (1-140) (human, UniProt P37840 1-140); experiment: cell-based or functional assay
[13] = molecular target: truncated human α-synuclein fragment 1-120 (human, UniProt P37840 1-120); experiment: ELISA on plate-coated truncated human alpha-synuclein fragment 1-120, detection with goat anti-human kappa-AP, OD560
Experimental: as §1, §2

[14] = molecular target: T1, biotinylated human α-synuclein peptide …; experiment: ELISA on biotinylated human alpha-synuclein peptide 120-140, detection with goat anti-human kappa-AP, OD560
Experimental: as §1, §2

[15] = molecular target: T3, mIgG1-hAsyn100-140; experiment: MSD-SET solution equilibrium at 37 C
Experimental: During this incubation time, an MSD Sector plate is coated with monomeric human alpha-synuclein and blocked with a blocking reagent (i.e. BSA, casein). Following steady state equilibrium incubation times, individual antibody/mIgG1-hAsyn 100-140 mixtures are added simultaneously to the plate and allowed to incubate for 10 minutes to capture free antibody and minimize exchange with antibody in complex with mIgG1-hAsyn100-140. Following this short incubation, plates are subsequently washed and incubated with a biotinylated anti-human secondary antibody, followed by detection using streptavidin-S-tag on the MSD instrument. The resultant MSD signal (proportional to % free antibody) is then plotted as a function of mIgG1-hAsyn100-140 concentration and globally fit to a four parameter fit to obtain IC₅₀ (KD). Reported 95% confidence intervals represent the fitting of N=3 independent runs each with technical duplicates. The avidity-factor is the ratiometric difference between monomer affinity and dimer affinity and represents the selectivity in binding between monomeric and dimeric α-synuclein for antibody.

[16] = molecular target: T4, recombinant human α-synuclein fibril; experiment: ELISA, plate coated with fibril at 1 µg/ml
Experimental: An Enzyme-Linked Immunosorbent Assay (ELISA) is performed for quantitative determination of antibody affinity to recombinant human α-synuclein fibril.
as §1

| EC50 (read off the curve) [1] | Kd [2] | Kd [3] | Kd [4] | Kd [5] | Kd [6] | Kd [7] | Kd [8] | Kd [9] | avidity factor (monomer KD against dimer KD) [10] | Average IC50, inhibition of alpha-synuclein aggregation in SHSY-5Y-A53T-myc cells [11] | Average IC50, inhibition of fibril internalization into SH-SY5Y cells [12] | IC50 Standard Deviation, inhibition of fibril internalization into SH-SY5Y cells [12] | EC50 (read off the curve) [13] | EC50 (read off the curve) [14] | Kd [15] | EC50 [16] | Binder |
| --- | --- | --- | --- | --- | --- | --- | --- | --- | --- | --- | --- | --- | --- | --- | --- | --- | --- |
| ~1 nM | 0.00012 nM | 49.7 nM | 554 nM | 89 nM | 19 nM | 675 nM | 11.8 nM | 19 nM | ~20000 fold | 0.41 µg/mL | 0.45 µg/mL | 0.017 µg/mL | ~0.7 nM | ~0.9 nM | 0.00097 nM | 0.000193 µg/mL | Antibody 1 (antibody, human IgG4 S228P, kappa, F234A L235A, V domains shown, about 1% of the N-terminal glutamic acid may be converted to pyroglutamic acid; less than about 1% of the C-terminal glycine may be clipped, IgG4PAA, kappa) VH: EVQLLESGGGLVQPGGSLRLSCAASGFTFSSYAMSWVRQAPGKGLEWVSAISGSGGDTYYADSVKGRFTISRDNSKNTLYLQMNSLRAEDTAVYYCARGYGMDVWGQGTTVTVSS VL: DVVMTQSPLSLPVTLGQPASISCRSSQSLVHSDGNTYLMWFQQRPGQSPRRLIYKVSNRNSGVPDRFSGSGSGTDFTLKISRVEAEDVGVYYCMQGTKQYPTFGQGTKLEIKR |
| ~0.8 nM | 0.0032 nM | 99.3 nM | 1020 nM | 140 nM | 65.6 nM |  |  |  |  | 0.4 µg/mL | 0.56 µg/mL | 0.026 µg/mL | ~0.6 nM | ~5 nM |  | 0.000161 µg/mL | Antibody 2 (antibody, human IgG4 S228P, kappa, F234A L235A, V domains shown, about 1% of the N-terminal glutamic acid may be converted to pyroglutamic acid; less than about 1% of the C-terminal glycine may be clipped, IgG4PAA, kappa) VH: EVQLLESGGGLVQPGGSLRLSCAASGFTFSSYAMSWVRQAPGKGLEWVSAISGSGGDTYYADSVQGRFTISRDNSKNTLYLQMNSLRAEDTAVYYCARGYGMDVWGQGTTVTVSS VL: DVVMTQSPLSLPVTLGQPASISCRSSQDLVHSDGNTYLMWFQQRPGQSPRRLIYKVSDRNSGVPDRFSGSGSGTDFTLKISRVEAEDVGVYYCMQGTKQYPTFGQGTKLEIKR |
